In patent publication US20140274782A1, “AFFINITY REAGENTS AND METHODS FOR DETECTION, PURIFICATION, AND PROTEOMIC ANALYSIS OF METHYLATED PROTEINS” (The Board of Trustees of the Leland Stanford Junior …, priority 2013, published 2014):

B1: HNRNPH3 (protein, UniProt P31942 1-346, looked up)
Heterogeneous nuclear …: MDWVMKHNGPNDASDGTVRLRGLPFGCSKEEIVQFFQGLEIVPNGITLTMDYQGRSTGEAFVQFASKEIAENALGKHKERIGHRYIEIFRSSRSEIKGFYDPPRRLLGQRPGPYDRPIGGRGGYYGAGRGSMYDRMRRGGDGYDGGYGGFDDYGGYNNYGYGNDGFDDRMRDGRGMGGHGYGGAGDASSGFHGGHFVHMRGLPFRATENDIANFFSPLNPIRVHIDIGADGRATGEADVEFVTHEDAVAAMSKDKNNMQHRYIELFLNSTPGGGSGMGGSGMGGYGRDGMDNQGGYGSVGRMGMGNNYSGGYGTPDGLGGYGRGGGGSGGYYGQGGMSGGGWRGMY
B2: RRM1 (protein, UniProt P23921 1-792, looked up)
Ribonucleoside-diphosphate …: MHVIKRDGRQERVMFDKITSRIQKLCYGLNMDFVDPAQITMKVIQGLYSGVTTVELDTLAAETAATLTTKHPDYAILAARIAVSNLHKETKKVFSDVMEDLYNYINPHNGKHSPMVAKSTLDIVLANKDRLNSAIIYDRDFSYNYFGFKTLERSYLLKINGKVAERPQHMLMRVSVGIHKEDIDAAIETYNLLSERWFTHASPTLFNAGTNRPQLSSCFLLSMKDDSIEGIYDTLKQCALISKSAGGIGVAVSCIRATGSYIAGTNGNSNGLVPMLRVYNNTARYVDQGGNKRPGAFAIYLEPWHLDIFEFLDLKKNTGKEEQRARDLFFALWIPDLFMKRVETNQDWSLMCPNECPGLDEVWGEEFEKLYASYEKQGRVRKVVKAQQLWYAIIESQTETGTPYMLYKDSCNRKSNQQNLGTIKCSNLCTEIVEYTSKDEVAVCNLASLALNMYVTSEHTYDFKKLAEVTKVVVRNLNKIIDINYYPVPEACLSNKRHRPIGIGVQGLADAFILMRYPFESAEAQLLNKQIFETIYYGALEASCDLAKEQGPYETYEGSPVSKGILQYDMWNVTPTDLWDWKVLKEKIAKYGIRNSLLIAPMPTASTAQILGNNESIEPYTSNIYTRRVLSGEFQIVNPHLLKDLTERGLWHEEMKNQIIACNGSIQSIPEIPDDLKQLYKTVWEISQKTVLKMAAERGAFIDQSQSLNIHIAEPNYGKLTSMHFYGWKQGLKTGMYYLRTRPAANPIQFTLNKEKLKDKEKVSKEEEEKERNTAAMVCSLENRDECLMCGS
B3: PPP1R10 (protein, UniProt Q96QC0 1-940, looked up)
Serine/threonine-protein …: MGSGPIDPKELLKGLDSFLNRDGEVKSVDGISKIFSLMKEARKMVSRCTYLNILLQTRSPEILVKFIDVGGYKLLNNWLTYSKTTNNIPLLQQILLTLQHLPLTVDHLKQNNTAKLVKQLSKSSEDEELRKLASVLVSDWMAVIRSQSSTQPAEKDKKKRKDEGKSRTTLPERPLTEVKAETRAEEAPEKKREKPKSLRTTAPSHAKFRSTGLELETPSLVPVKKNASTVVVSDKYNLKPIPLKRQSNVAAPGDATPPAEKKYKPLNTTPNATKEIKVKIIPPQPMEGLGFLDALNSAPVPGIKIKKKKKVLSPTAAKPSPFEGKTSTEPSTAKPSSPEPAPPSEAMDADRPGTPVPPVEVPELMDTASLEPGALDAKPVESPGDPNQLTRKGRKRKSVTWPEEGKLREYFYFELDETERVNVNKIKDFGEAAKREILSDRHAFETARRLSHDNMEEKVPWVCPRPLVLPSPLVTPGSNSQERYIQAEREKGILQELFLNKESPHEPDPEPYEPIPPKLIPLDEECSMDETPYVETLEPGGSGGSPDGAGGSKLPPVLANLMGSMGAGKGPQGPGGGGINVQEILTSIMGSPNSHPSEELLKQPDYSDKIKQMLVPHGLLGPGPIANGFPPGGPGGPKGMQHFPPGPGGPMPGPHGGPGGPVGPRLLGPPPPPRGGDPFWDGPGDPMRGGPMRGGPGPGPGPYHRGRGGRGGNEPPPPPPPFRGARGGRSGGGPPNGRGGPGGGMVGGGGHRPHEGPGGGMGNSSGHRPHEGPGGGMGSGHRPHEGPGGSMGGGGGHRPHEGPGGGISGGSGHRPHEGPGGGMGAGGGHRPHEGPGGSMGGSGGHRPHEGPGHGGPHGHRPHDVPGHRGHDHRGPPPHEHRGHDGPGHGGGGHRGHDGGHSHGGDMSNRPVCRHFMMKGNCRYENNCAFYHPGVNGPPLP
B4: SRP68 (protein, UniProt Q9UHB9 1-627, looked up)
Signal recognition particle …: MAAEKQVPGGGGGGGSGGGGGSGGGGSGGGRGAGGEENKENERPSAGSKANKEFGDSLSLEILQIIKESQQQHGLRHGDFQRYRGYCSRRQRRLRKTLNFKMGNRHKFTGKKVTEELLTDNRYLLLVLMDAERAWSYAMQLKQEANTEPRKRFHLLSRLRKAVKHAEELERLCESNRVDAKTKLEAQAYTAYLSGMLRFEHQEWKAAIEAFNKCKTIYEKLASAFTEEQAVLYNQRVEEISPNIRYCAYNIGDQSAINELMQMRLRSGGTEGLLAEKLEALITQTRAKQAATMSEVEWRGRTVPVKIDKVRIFLLGLADNEAAIVQAESEETKERLFESMLSECRDAIQVVREELKPDQKQRDYILEGEPGKVSNLQYLHSYLTYIKLSTAIKRNENMAKGLQRALLQQQPEDDSKRSPRPQDLIRLYDIILQNLVELLQLPGLEEDKAFQKEIGLKTLVFKAYRCFFIAQSYVLVKKWSEALVLYDRVLKYANEVNSDAGAFKNSLKDLPDVQELITQVRSEKCSLQAAAILDANDAHQTETSSSQVKDNKPLVERFETFCLDPSLVTKQANLVHFPPGFQPIPCKPLFFDLALNHVAFPPLEDKLEQKTKSGLTGYIKGIFGFRS

Columns and labels:
G9a and GLP = target: T1, G9a and GLP (Homo sapiens, UniProt Q96KQ7+Q9H9B1); experiment: Triple SILAC pull-down after UNC0638 treatment of 293T cells, DMSO/UNC0638 ratio of protein captured by 3×MBT; assay type: cell-based; design: endogenous in cells; host or cells: HEK 293T; details: for Relative to UNC0638 UNC Heavy / Relative to UNC0638 UNC Light: SILAC ratio DMSO/UNC0638 of protein pulled down with 3xMBT; for Relative to UNC0638 UNC Heavy: UNC0638 in heavy SILAC media; for Relative to UNC0638 UNC Light: UNC0638 in light SILAC media; for Relative to UNC0638 Average: average of UNC Light and UNC Heavy experiments;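 for all read-outs here: mass spectrometry (Q-Exactive) SILAC quantitation, DMSO/UNC0638 ratio computed after subtracting 3×MBTD355N mutant pull-down background, only proteins with at least twofold 3×MBT over mutant signal considered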
T1 sequence (Q96KQ7 2-1210 limits assumed): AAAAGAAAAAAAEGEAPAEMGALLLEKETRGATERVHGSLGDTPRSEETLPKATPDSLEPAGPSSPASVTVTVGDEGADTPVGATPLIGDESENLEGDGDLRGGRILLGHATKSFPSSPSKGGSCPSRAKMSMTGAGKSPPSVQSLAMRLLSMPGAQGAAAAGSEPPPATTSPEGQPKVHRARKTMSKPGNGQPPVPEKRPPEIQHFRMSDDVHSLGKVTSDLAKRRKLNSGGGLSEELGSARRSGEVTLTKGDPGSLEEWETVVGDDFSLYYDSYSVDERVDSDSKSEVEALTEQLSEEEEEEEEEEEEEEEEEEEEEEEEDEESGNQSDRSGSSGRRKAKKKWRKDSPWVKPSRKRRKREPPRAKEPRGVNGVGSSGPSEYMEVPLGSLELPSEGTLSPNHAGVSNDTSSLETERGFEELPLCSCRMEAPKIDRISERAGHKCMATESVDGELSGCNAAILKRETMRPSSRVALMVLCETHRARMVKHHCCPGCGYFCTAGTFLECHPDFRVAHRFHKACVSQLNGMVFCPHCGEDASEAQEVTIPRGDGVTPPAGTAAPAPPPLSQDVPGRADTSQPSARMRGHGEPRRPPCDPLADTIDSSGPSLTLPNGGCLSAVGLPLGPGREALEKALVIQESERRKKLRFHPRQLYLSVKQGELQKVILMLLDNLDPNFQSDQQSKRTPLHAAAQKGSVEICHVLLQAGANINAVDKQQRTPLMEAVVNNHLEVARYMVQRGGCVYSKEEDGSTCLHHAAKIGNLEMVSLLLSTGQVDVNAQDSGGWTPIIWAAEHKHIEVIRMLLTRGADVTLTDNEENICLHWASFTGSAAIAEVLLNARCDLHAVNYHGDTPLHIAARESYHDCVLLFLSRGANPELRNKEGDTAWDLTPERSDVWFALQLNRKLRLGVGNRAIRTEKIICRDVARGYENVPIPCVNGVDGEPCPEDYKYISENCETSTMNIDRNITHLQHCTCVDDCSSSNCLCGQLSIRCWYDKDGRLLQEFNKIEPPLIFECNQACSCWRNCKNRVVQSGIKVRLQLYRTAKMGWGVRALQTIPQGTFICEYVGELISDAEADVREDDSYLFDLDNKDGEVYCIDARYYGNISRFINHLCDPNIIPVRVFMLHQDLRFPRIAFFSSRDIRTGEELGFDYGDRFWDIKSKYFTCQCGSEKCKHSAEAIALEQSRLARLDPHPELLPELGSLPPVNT
T1 sequence (Q9H9B1 2-1298 limits assumed): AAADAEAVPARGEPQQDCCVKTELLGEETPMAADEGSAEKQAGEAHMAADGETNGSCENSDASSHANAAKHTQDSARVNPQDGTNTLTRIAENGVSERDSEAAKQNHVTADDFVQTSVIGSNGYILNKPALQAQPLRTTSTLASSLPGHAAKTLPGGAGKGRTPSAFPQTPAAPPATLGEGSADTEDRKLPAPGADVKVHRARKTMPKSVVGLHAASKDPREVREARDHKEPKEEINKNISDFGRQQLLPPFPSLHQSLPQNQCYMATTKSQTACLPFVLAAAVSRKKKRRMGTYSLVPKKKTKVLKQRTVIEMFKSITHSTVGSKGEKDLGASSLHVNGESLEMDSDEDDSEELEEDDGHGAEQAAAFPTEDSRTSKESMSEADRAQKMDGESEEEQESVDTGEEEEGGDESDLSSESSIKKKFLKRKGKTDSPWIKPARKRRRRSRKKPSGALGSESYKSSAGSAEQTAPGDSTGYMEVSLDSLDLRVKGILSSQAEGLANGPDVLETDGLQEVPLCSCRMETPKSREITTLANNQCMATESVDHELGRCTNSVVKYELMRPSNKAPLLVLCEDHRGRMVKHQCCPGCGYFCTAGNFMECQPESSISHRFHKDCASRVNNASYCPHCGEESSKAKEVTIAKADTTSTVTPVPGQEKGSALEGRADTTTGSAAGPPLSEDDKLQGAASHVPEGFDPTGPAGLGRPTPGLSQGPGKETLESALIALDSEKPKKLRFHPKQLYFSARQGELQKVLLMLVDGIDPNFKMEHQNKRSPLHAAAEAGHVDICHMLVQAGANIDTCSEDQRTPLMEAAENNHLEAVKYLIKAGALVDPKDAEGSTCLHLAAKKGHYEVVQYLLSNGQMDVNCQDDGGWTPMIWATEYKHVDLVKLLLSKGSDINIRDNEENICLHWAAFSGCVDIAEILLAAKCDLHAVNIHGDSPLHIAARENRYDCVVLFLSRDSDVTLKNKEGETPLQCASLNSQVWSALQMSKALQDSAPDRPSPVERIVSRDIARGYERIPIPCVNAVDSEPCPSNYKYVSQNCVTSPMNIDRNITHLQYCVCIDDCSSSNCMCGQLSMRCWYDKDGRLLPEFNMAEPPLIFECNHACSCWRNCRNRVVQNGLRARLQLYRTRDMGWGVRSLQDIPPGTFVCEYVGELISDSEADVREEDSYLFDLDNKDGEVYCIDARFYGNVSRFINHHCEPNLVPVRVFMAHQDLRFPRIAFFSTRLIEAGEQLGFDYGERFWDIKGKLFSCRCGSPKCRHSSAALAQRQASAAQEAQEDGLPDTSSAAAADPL

3×MBT domain of L3MBTL1 = experiment: Triple SILAC pull-down, 3xMBT/3xMBTD355N ratio (cytoplasmic, nuclear and chromatin fractions of 293T cells); assay type: binding, human; details: SILAC ratio, pull-down 3xMBT vs 3xMBTD355N; for 3xMBT/D355N UNC Heavy: experiment with UNC0638 in heavy SILAC media; for 3xMBT/D355N UNC Light: experiment with UNC0638 in light SILAC media;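 for all read-outs here: proteins quantified with MaxQuant, requiring at least two unique peptides and quantification in both label directions, normalized to the mean of proteins from a digested loading control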

Molecule	Relative to UNC0638 UNC Heavy (G9a and GLP) [log base 2]	Relative to UNC0638 UNC Light (G9a and GLP) [log base 2]	Relative to UNC0638 Average (G9a and GLP) [log base 2]	3xMBT/D355N UNC Heavy (3×MBT domain of L3MBTL1) [log base 2]	3xMBT/D355N UNC Light (3×MBT domain of L3MBTL1) [log base 2]
B1	0.28	0.39	0.34	1.94	2.57
B2	0.96	−0.22	0.37	1.23	0.94
B3	0.36	0.37	0.36	4.73	2.57
B4	−0.08	0.76	0.34	2.41	3.28
